Source: patent publication US7354734B2, “Fungal proteins and nucleic acids encoding same” (priority 2003, dated 2008)
“And” between values parts separate entries of the source, which are not always exact repeats. Identical values can stand only once. “Also recorded” adds a separate entry of the source. Like-named read-outs stand apart in the source and are kept apart here.

Legend:
[1] = system: gliadin 33mer (fragment 57-89 of gliadin MM1); test: Digestion of gliadin 33mer (RP-HPLC, ESI-MS); assay type: biochemical, wheat; conditions: for digestion of gliadin 33mer, enzyme alone: 37° C.
[2] = molecular target: T1, pkLAP (microsomal LAP from porcine kidney) (Sus scrofa, UniProt P15145); test: Effect of inhibitors and metallic cations on LAP activity (Leu-AMC); assay type: biochemical; conditions: Leu-MCA substrate, 15 min pre-incubation
T1 construct: purchased Sigma; host or cells: porcine kidney
T1 sequence (P15145 1-963): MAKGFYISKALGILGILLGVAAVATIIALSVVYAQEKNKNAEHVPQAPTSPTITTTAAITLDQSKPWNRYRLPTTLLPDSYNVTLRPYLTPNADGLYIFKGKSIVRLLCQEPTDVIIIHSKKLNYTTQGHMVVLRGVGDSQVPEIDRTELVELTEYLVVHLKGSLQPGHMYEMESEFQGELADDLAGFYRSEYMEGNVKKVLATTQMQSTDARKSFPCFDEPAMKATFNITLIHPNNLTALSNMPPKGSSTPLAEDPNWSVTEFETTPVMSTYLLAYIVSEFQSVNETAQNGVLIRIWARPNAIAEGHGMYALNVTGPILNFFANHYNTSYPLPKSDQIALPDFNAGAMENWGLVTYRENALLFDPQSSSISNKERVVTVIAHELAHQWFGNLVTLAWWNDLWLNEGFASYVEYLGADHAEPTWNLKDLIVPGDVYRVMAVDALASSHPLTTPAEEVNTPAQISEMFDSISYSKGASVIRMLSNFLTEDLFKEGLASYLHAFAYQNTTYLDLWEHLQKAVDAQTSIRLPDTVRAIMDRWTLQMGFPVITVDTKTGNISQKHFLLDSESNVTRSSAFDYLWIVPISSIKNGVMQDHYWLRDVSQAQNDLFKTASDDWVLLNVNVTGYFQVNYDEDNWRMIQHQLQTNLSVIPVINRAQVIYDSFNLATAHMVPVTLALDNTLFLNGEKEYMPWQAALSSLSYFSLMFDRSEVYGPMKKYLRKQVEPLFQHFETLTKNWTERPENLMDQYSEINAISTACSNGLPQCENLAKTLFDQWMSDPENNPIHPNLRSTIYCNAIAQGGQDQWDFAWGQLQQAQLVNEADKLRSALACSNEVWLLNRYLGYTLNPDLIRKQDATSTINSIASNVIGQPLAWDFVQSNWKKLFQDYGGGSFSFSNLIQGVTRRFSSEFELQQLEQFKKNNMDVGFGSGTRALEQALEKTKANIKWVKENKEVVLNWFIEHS

ruLAP2 = ruLAP2 (Trichophyton rubrum, UniProt Q5QHG6); assay type: biochemical; conditions: Leu-MCA substrate, 15 min pre-incubation
Chain of ruLAP2 (Q5QHG6 20-495): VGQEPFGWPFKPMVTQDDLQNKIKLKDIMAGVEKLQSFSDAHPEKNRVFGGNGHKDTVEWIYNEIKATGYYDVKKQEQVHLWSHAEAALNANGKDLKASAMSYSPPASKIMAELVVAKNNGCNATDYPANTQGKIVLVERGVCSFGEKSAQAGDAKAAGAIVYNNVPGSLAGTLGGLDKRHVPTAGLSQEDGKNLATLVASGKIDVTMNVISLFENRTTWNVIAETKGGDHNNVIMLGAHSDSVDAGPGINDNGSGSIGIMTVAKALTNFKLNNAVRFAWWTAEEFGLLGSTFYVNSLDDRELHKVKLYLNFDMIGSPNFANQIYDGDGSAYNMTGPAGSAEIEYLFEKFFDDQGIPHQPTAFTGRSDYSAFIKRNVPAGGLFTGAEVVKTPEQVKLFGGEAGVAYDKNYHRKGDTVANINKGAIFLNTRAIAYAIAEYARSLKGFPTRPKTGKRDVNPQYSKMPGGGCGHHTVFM

fuLAP2 = assay type: biochemical, Aspergillus fumigatus; conditions: for effect of divalent cation on fuLAP2 activity: Leu-AMC, cations 0.5 mM and 1 mM; for fuLAP2 activity as percentage of control reaction without any cation: Leu-MCA substrate, 15 min pre-incubation
fuLAP1 = fuLAP1 (Aspergillus fumigatus, UniProt Q5VJG6); test: biochemical; assay type: biochemical; conditions: for effect of divalent cation on fuLAP1 activity: Leu-AMC, cations 0.5 mM and 1 mM; for fuLAP1 activity as percentage of control reaction without any cation: Leu-MCA substrate, 15 min pre-incubation
ruLAP1 = ruLAP1 (Trichophyton rubrum, UniProt Q5QHG5); assay type: biochemical
Chain of ruLAP1 (Q5QHG5 21-373): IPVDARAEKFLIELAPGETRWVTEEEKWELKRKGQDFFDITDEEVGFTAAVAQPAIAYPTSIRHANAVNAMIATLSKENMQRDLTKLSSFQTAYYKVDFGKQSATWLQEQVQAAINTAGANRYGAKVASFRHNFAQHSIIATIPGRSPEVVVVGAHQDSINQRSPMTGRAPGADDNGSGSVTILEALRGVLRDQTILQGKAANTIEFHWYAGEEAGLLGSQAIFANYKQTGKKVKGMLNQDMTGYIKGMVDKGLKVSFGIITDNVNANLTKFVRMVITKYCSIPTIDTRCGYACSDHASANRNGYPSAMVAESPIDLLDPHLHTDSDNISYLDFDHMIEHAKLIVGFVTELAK

[3] = assay type: biochemical; conditions: substrate Lys(Abz)Pro-PropNA 5 mM, 37° C., 60 min
[4] = assay type: biochemical

For Chymotrypsin, the “digestion of the peptide, with addition of ruLAP2” value [1] was “not able to breakdown”, the “digestion of gliadin 33mer, enzyme alone” value [1] was “not able to breakdown” and the “digestion of the peptide, with addition of DPPIV” value ([1]; same conditions, E/S (w:w) 1:50) was “not able to breakdown”.

For `[Cl][Mn][Cl]` [Mn^++, MnCl2], the “pkLAP activity as percentage of control reaction without any cation” value ([2]; cation salt 0.5 mM) was 157.6%, the “pkLAP activity as percentage of control reaction without any cation” value ([2]; cation salt 1 mM) was 165.8% and the “ruLAP2 activity as percentage of control reaction without any cation” value (ruLAP2; cation salt 0.5 mM) was 77.5%. The “ruLAP2 activity as percentage of control reaction without any cation” value (ruLAP2; cation salt 1 mM) was 86.8%, the “effect of divalent cation on fuLAP2 activity” value (fuLAP2) was “activated” and the “fuLAP2 activity as percentage of control reaction without any cation” value (fuLAP2; cation salt 0.5 mM) was 84.3%. For the same molecule, the “fuLAP2 activity as percentage of control reaction without any cation” value (fuLAP2; cation salt 1 mM) was 140.2%, the “effect of divalent cation on fuLAP1 activity” value (fuLAP1) was “inhibited” and the “fuLAP1 activity as percentage of control reaction without any cation” value (fuLAP1; cation salt 0.5 mM) was 25.9%. For the same molecule, the “fuLAP1 activity as percentage of control reaction without any cation” value (fuLAP1; cation salt 1 mM) was 28.4% and the “ruLAP1 activity as percentage of control reaction without any cation” value (ruLAP1) was 120.7% and 105.2%.

In the case of `[Ca+2].[Cl-].[Cl-]` [Ca^++, CaCl2], the “pkLAP activity as percentage of control reaction without any cation” value ([2]; cation salt 0.5 mM) is reported as 177.4%, the “pkLAP activity as percentage of control reaction without any cation” value ([2]; cation salt 1 mM) is reported as 161.8% and the “ruLAP2 activity as percentage of control reaction without any cation” value (ruLAP2; cation salt 0.5 mM) is reported as 126.6%. The “ruLAP2 activity as percentage of control reaction without any cation” value (ruLAP2; cation salt 1 mM) was 141.9%, the “effect of divalent cation on fuLAP2 activity” value (fuLAP2) was “activated” and the “fuLAP2 activity as percentage of control reaction without any cation” value (fuLAP2; cation salt 0.5 mM) was 110.0%. For the same molecule, the “fuLAP2 activity as percentage of control reaction without any cation” value (fuLAP2; cation salt 1 mM) was 165.4%, the “effect of divalent cation on fuLAP1 activity” value (fuLAP1) was “inhibited” and the “fuLAP1 activity as percentage of control reaction without any cation” value (fuLAP1; cation salt 0.5 mM) was 54.9%. The “fuLAP1 activity as percentage of control reaction without any cation” value (fuLAP1; cation salt 1 mM) was 43.3% and the “ruLAP1 activity as percentage of control reaction without any cation” value (ruLAP1) was 151.7% and 175.6%.

B1: Cytosolic porcine kidney aminopeptidase: cytosolic leucine aminopeptidase from porcine kidney, Sigma (protein, UniProt P28839 1-519, looked up)
Cytosol aminopeptidase: MFLLPLPAAARVAVRQLSVRRFWGPGPDAANMTKGLVLGIYSKEKEDDAPQFTSAGENFDKLVSGKLREILNISGPPLKAGKTRTFYGLHEDFSSVVVVGLGKKGAGVDDQENWHEGKENIRAAVAAGCRQIQDLEIPSVEVDPCGDAQAAAEGAVLGLYEYDELKQKKKVVVSAKLHGSGDQEAWQRGVLFASGQNLARHLMETPANEMTPTRFAEVIEKNLKSASSKTDVHIRPKSWIEEQEMGSFLSVAKGSEEPPVFLEIHYKGSPDASDPPLVFVGKGITFDSGGISIKASANMDLMRADMGGAATICSTIVSAAKLDLPINLVGLAPLCENMPSGKANKPGDVVRAKNGKTIQVDNTDAEGRLILADALCYAHTFNPKVIINAATLTGAMDIALGSGATGVFTNSSWLWNKLFEASIETGDRVWRMPLFEHYTKQIVDCQLADVNNIGKYRSAGACTAAAFLKEFVTHPKWAHLDIAGVMTNKDEVPYLRKGMAGRPTRTLIEFLLRFSQDSA
For B1, the “digestion of gliadin 33mer, enzyme alone” value [1] was “totally inactive”.

B2: fuLAP1: A. fumigatus leucine aminopeptidase, 388 amino acid residues (SEQ ID NO: 12) (protein, listed as Aspergillus fumigatus)
chain: MKVLTAIALSAIAFTGAVAAVITQEAFLNNPRIHHDQEKYLIELAPYRTRWVTEEEKWALKLDGVNFIDITEEHNTGFYPTLHSASYVKYPPKMQYAEEVAALNKNLSKENMKANLERFTSFHTRYYKSQTGIRSATWLFDQVQRVVSESGAAEYGATVERFSHPWGQFSIIARIPGRTNKTVVLGAHQDSINLFLPSILAAPGADDDGSGTVTILEALRGLLQSDAIAKGNASNTVEFHWYSAEEGGMLGSQAIFSNYKRNRREIKAMLQQDMTGYVQGALNAGVEEAIGIMVDYVDQGLTQFLKDVVTAYCSVGYLETKCGYACSDHTSASKYGYPAAMATEAEMENTNKKIHTTDDKIKYLSFDHMLEHAKLSLGFAFELAFAPF
In the case of B2, the “hydrolytic activity toward Lys(Abz)Pro-PropNA in comparison to Leu-MCA used as a standard” value [3] is reported as 0.0%, the “hydrolytic activity toward Arg-AMC” value ([4]; compared to Leu-AMC) is reported as “appreciated” and the “hydrolytic activity toward Phe-AMC” value ([4]; compared to Leu-AMC) is reported as “appreciated”. For the same molecule, the “hydrolytic activity toward Val-AMC” value ([4]; compared to Leu-AMC) was “appreciated”, the “hydrolytic activity toward Ala-AMC in comparison to Leu-MCA used as a standard” value ([4]; substrate Ala-AMC 5 mM, 37° C., 60 min) was 4.7% and the “hydrolytic activity toward Arg-AMC in comparison to Leu-MCA used as a standard” value ([4]; substrate Arg-AMC 5 mM, 37° C., 60 min) was 53.9%. For the same molecule, the “hydrolytic activity toward Asn-AMC in comparison to Leu-MCA used as a standard” value ([4]; substrate Asn-AMC 5 mM, 37° C., 60 min) was 29.4%, the “hydrolytic activity toward Asp-AMC in comparison to Leu-MCA used as a standard” value ([4]; substrate Asp-AMC 5 mM, 37° C., 60 min) was 0.8% and the “hydrolytic activity toward Cys-AMC in comparison to Leu-MCA used as a standard” value ([4]; substrate Cys-AMC 5 mM, 37° C., 60 min) was 5.0%. The “hydrolytic activity toward Gln-AMC in comparison to Leu-MCA used as a standard” value ([4]; substrate Gln-AMC 5 mM, 37° C., 60 min) was 44.9%, the “hydrolytic activity toward Glu-AMC in comparison to Leu-MCA used as a standard” value ([4]; substrate Glu-AMC 5 mM, 37° C., 60 min) was 0.0% and the “hydrolytic activity toward Gly-AMC in comparison to Leu-MCA used as a standard” value ([4]; substrate Gly-AMC 5 mM, 37° C., 60 min) was 0.8%. The “hydrolytic activity toward Gly-Pro-AMC in comparison to Leu-MCA used as a standard” value ([4]; substrate Gly-Pro-AMC 5 mM, 37° C., 60 min) was 5.4%, the “hydrolytic activity toward His-AMC in comparison to Leu-MCA used as a standard” value ([4]; substrate His-AMC 5 mM, 37° C., 60 min) was 0.8% and the “hydrolytic activity toward Hyp-AMC in comparison to Leu-MCA used as a standard” value ([4]; substrate Hyp-AMC 5 mM, 37° C., 60 min) was 3.9%. For the same molecule, the “hydrolytic activity toward Ile-AMC in comparison to Leu-MCA used as a standard” value ([4]; substrate Ile-AMC 5 mM, 37° C., 60 min) was 13.2%, the “hydrolysis of Leu-AMC” value ([4]; substrate Leu-AMC) was “efficiently hydrolyzed; also recorded: common preference” and the “hydrolytic activity toward Leu-AMC in comparison to Leu-MCA used as a standard” value ([4]; substrate Leu-AMC 5 mM, 37° C., 60 min) was 100.0%. For the same molecule, the “hydrolytic activity toward Lys-AMC in comparison to Leu-MCA used as a standard” value ([4]; substrate Lys-AMC 5 mM, 37° C., 60 min) was 7.7%, the “hydrolytic activity toward Met-AMC in comparison to Leu-MCA used as a standard” value ([4]; substrate Met-AMC 5 mM, 37° C., 60 min) was 116.9% and the “hydrolytic activity toward Phe-AMC in comparison to Leu-MCA used as a standard” value ([4]; substrate Phe-AMC 5 mM, 37° C., 60 min) was 163.7%. For the same molecule, the “hydrolytic activity toward Pro-AMC in comparison to Leu-MCA used as a standard” value ([4]; substrate Pro-AMC 5 mM, 37° C., 60 min) was 12.0%, the “hydrolytic activity toward Pyr-AMC in comparison to Leu-MCA used as a standard” value ([4]; substrate Pyr-AMC 5 mM, 37° C., 60 min) was 0.0% and the “hydrolytic activity toward Ser-AMC in comparison to Leu-MCA used as a standard” value ([4]; substrate Ser-AMC 5 mM, 37° C., 60 min) was 10.3%. For the same molecule, the “hydrolytic activity toward Thr-AMC in comparison to Leu-MCA used as a standard” value ([4]; substrate Thr-AMC 5 mM, 37° C., 60 min) was 5.1% and the “hydrolytic activity toward Val-AMC in comparison to Leu-MCA used as a standard” value ([4]; substrate Val-AMC 5 mM, 37° C., 60 min) was 27.6%.
